Data published in the supplement of paper PMC6757056.
± gives the standard deviation of the averaged measurements.

B1: library; a variant is named by its letters at N, in order (parent)
chain: GCUGUCACCGGUGCUUGGUACGUUAUAUUCAGCCGGUCUGAUGAGUCUNNNNNNAGACGAAACAGC

Columns and labels:
(6R,S)-folinic acid [1] = variants of: B1; experiment: normalized RNA/DNA level without ligand (relative to sTRSVctl = 100) (log10 (% of sTRSVctl)); HEK293T overexpressing SLC46A1; higher = less ribozyme self-cleavage, higher mRNA level; conditions: without (6R,S)-folinic acid; ligand present: no
Procedure, shortened: (§1)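 Ribozyme switch library plasmids with mCherry reporters (eGFP in certain ligand experiments) went into HEK293T cells at 4 µg per 6-well well. Where ligand was used, it was applied 1 h before transfection, and total RNA was extracted with EDTA 72 h later for reverse transcription, amplification, barcoding and sequencing. RNA level is the RNA-to-DNA read ratio normalized to a spiked-in non-cleaving sequence or to the leading sequences, then scaled and log-transformed. Scaling was ×100 with log10, the leading set comprised 25 sequences, and the cutoff was ≥100 DNA reads.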

(6R,S)-folinic acid [2] = variants of: B1; experiment: normalized RNA/DNA level with ligand (relative to sTRSVctl = 100) (log10 (% of sTRSVctl)); HEK293T overexpressing SLC46A1; ligand concentration (+) RNA-Seq: 6 mM; higher = less ribozyme self-cleavage, higher mRNA level; conditions: with (6R,S)-folinic acid; ligand present: yes
Procedure, shortened: as §1

Variant	normalized RNA/DNA level without ligand (log10) ((6R,S)-folinic acid [1])	normalized RNA/DNA level with ligand (log10) ((6R,S)-folinic acid [2])
CAUAUA	1.954 ± 0.019	1.97 ± 0.036
CAUUCU	2.022 ± 0.0089	2.01 ± 0.056
CAUUCA	1.96 ± 0.02	1.9724 ± 0.001
CAUUCG	2.037 ± 0.0077	2 ± 0.032
CAUUCC	2.06 ± 0.033	2.02 ± 0.06
UAUUUA	1.98 ± 0.024	2.01 ± 0.021
CCAAGC	2.098 ± 0.0093	2.0623 ± 0.001
CCAAGG	2 ± 0.0033	1.991 ± 0.014
CCAAGA	2.0052 ± 0.00077	2.038 ± 0.0056
GAUUCG	1.978 ± 0.0021	2.01 ± 0.042
GAUUCC	2.064 ± 0.0098	2.043 ± 0.019
UCACGA	2.019 ± 0.0037	2.03 ± 0.028
AAUGCC	2.026 ± 0.012	2.03 ± 0.03
AAUGCU	2.022 ± 0.01	2.02 ± 0.045
UAUCGA	1.927 ± 0.0098	2 ± 0.028
UAUCGC	2.014 ± 0.0075	2.03 ± 0.043
UAUCGU	1.947 ± 0.0084	2.01 ± 0.038
GAUCGG	2.084 ± 0.015	2.07 ± 0.04
GAUCGA	2.033 ± 0.008	2.02 ± 0.036
GAUCGU	2.02 ± 9.8e-05	2.02 ± 0.052
GAUCGC	1.998 ± 0.016	2.032 ± 0.014
CCACAG	1.95 ± 0.026	2 ± 0.024
CCACAC	1.99 ± 0.02	1.967 ± 0.0084

Variant	normalized RNA/DNA level without ligand (log10) ((6R,S)-folinic acid [1])	normalized RNA/DNA level with ligand (log10) ((6R,S)-folinic acid [2])
CCACAU	1.961 ± 0.004	1.98 ± 0.072
UAUAAC	1.98 ± 0.0056	2 ± 0.029
GAUCAC	2.03 ± 0.031	2.034 ± 0.0087
GAUCAA	2.001 ± 0.0021	2 ± 0.027
GAUCAG	2.03 ± 0.041	2.05 ± 0.028
GAUCAU	2.023 ± 0.008	2.02 ± 0.026
UAUACA	1.965 ± 0.003	2.01 ± 0.05
CAGUUG	2.041 ± 0.0043	2.06 ± 0.013
CAGUUU	1.989 ± 0.011	2.03 ± 0.039
UAGUGU	1.901 ± 0.008	1.99 ± 0.0065
GCACGA	2.029 ± 0.005	2.03 ± 0.038
GCAACG	1.982 ± 0.0082	2.014 ± 0.02
GCAACC	2.033 ± 0.0054	2.019 ± 0.019
GCAACA	2.058 ± 0.0047	2.05 ± 0.038
AAUUCU	2.0312 ± 0.0016	2.03 ± 0.027
AAUUCG	1.974 ± 0.012	2.03 ± 0.038
AAUUCC	2.059 ± 0.018	2.036 ± 0.019
AAUUCA	1.9759 ± 0.00044	2 ± 0.041
AAUCUC	2.068 ± 0.011	2.04 ± 0.034
AAUCUG	1.958 ± 0.0061	2.04 ± 0.048
GAUAAG	1.917 ± 0.0057	2 ± 0.033
CAUGAU	1.97 ± 0.02	1.997 ± 0.012
CAUGAC	1.98 ± 0.024	2 ± 0.012

Variant	normalized RNA/DNA level without ligand (log10) ((6R,S)-folinic acid [1])	normalized RNA/DNA level with ligand (log10) ((6R,S)-folinic acid [2])
CAUGAG	1.942 ± 0.0092	2.006 ± 0.0049
ACACAC	2.019 ± 0.0045	2.01 ± 0.058
ACACAG	1.953 ± 0.0027	2.01 ± 0.048
ACACAA	1.968 ± 0.019	1.98 ± 0.045
UAUCUU	2.007 ± 0.005	2.05 ± 0.021
UAUCUG	1.878 ± 0.017	2 ± 0.023
UAUCUA	1.987 ± 0.0076	2.03 ± 0.028
UAUCUC	2.053 ± 0.018	2.03 ± 0.027
UCACCA	2.0085 ± 0.0017	2.006 ± 0.0035
UCACCC	2.05 ± 0.025	2.04 ± 0.037
UCACCU	2.051 ± 0.0042	2.06 ± 0.027
GAUCCC	2.06 ± 0.033	2.0517 ± 0.00022
GAUCCA	2.034 ± 0.0061	2.02 ± 0.039
GAUCCG	2.0564 ± 0.0019	2.05 ± 0.063
GAUCCU	2.066 ± 0.02	2.06 ± 0.053
AAUCGU	1.99 ± 0.0073	2.013 ± 0.0078
AAUCGA	1.974 ± 0.019	2 ± 0.029
UAUGCC	1.995 ± 0.0025	1.99 ± 0.04
UAUGCA	1.95 ± 0.027	2.01 ± 0.021
GAUUUC	2.055 ± 0.017	2 ± 0.03
GAUUUG	1.95 ± 0.023	2.03 ± 0.047
GAUUUU	2.011 ± 0.0062	2.026 ± 0.0072
ACAAGU	2.022 ± 0.0081	2.02 ± 0.028

Variant	normalized RNA/DNA level without ligand (log10) ((6R,S)-folinic acid [1])	normalized RNA/DNA level with ligand (log10) ((6R,S)-folinic acid [2])
ACAAGC	2.033 ± 0.01	2.02 ± 0.04
ACAAGA	1.974 ± 0.0046	2.02 ± 0.031
CAUAAG	1.95 ± 0.035	2.03 ± 0.035
GAUCUG	2.008 ± 0.013	2.032 ± 0.0047
GAUCUC	2.0583 ± 0.00073	1.99 ± 0.035
GAUCUA	2.03 ± 0.024	2.027 ± 0.02
GAUCUU	2.031 ± 0.0082	2.02 ± 0.083
AAUUAG	1.94 ± 0.0025	2.01 ± 0.027
AAUUAU	1.983 ± 0.013	2.03 ± 0.038
AAUUAA	1.95 ± 0.021	1.98 ± 0.025
AAUUAC	1.982 ± 0.0057	2.01 ± 0.026
UAUGGU	1.8765 ± 0.0006	1.98 ± 0.026
CAUCAG	1.97 ± 0.039	1.97 ± 0.021
CAUCAA	1.977 ± 0.0041	1.97 ± 0.021
CAUCAU	2.02 ± 0.052	2 ± 0.072
CAUCAC	2.03 ± 0.0083	2 ± 0.071
GAUUGC	1.974 ± 0.015	2 ± 0.036
GAUUGG	1.973 ± 0.017	2.028 ± 0.019
UCAAUC	2.074 ± 0.0092	2.06 ± 0.048
UCAAUU	2.013 ± 0.011	2.02 ± 0.014
UCAAUA	1.9534 ± 0.0012	1.98 ± 0.031
UAUUAU	1.931 ± 0.012	1.985 ± 0.01
CAUUAA	1.953 ± 0.0081	1.976 ± 0.014

Variant	normalized RNA/DNA level without ligand (log10) ((6R,S)-folinic acid [1])	normalized RNA/DNA level with ligand (log10) ((6R,S)-folinic acid [2])
CAUUAG	1.94 ± 0.037	1.985 ± 0.0055
UAUUCU	1.99 ± 0.039	2.04 ± 0.048
UAUUCA	2.019 ± 0.0067	2.05 ± 0.037
UAUUCC	1.972 ± 0.0012	1.986 ± 0.0039
UAUUCG	1.735 ± 0.0046	1.94 ± 0.063
UAUUGC	1.941 ± 0.011	1.96 ± 0.034
UAUUGU	1.888 ± 0.012	2.005 ± 0.017
GAUUAC	1.987 ± 0.014	2.017 ± 0.017
CAUCCA	2.028 ± 0.006	1.99 ± 0.036
CAUCCG	2.083 ± 0.013	2.05 ± 0.028
CAUCCC	2.063 ± 0.0042	2.041 ± 0.011
CAUCCU	2.06 ± 0.013	2.08 ± 0.058
GAUAUC	2.02 ± 0.018	2.03 ± 0.036
GAUAUU	2.005 ± 0.0061	2.02 ± 0.041
AAUACG	1.934 ± 0.0037	1.99 ± 0.056
AAUACA	1.998 ± 0.014	1.995 ± 0.015
ACACCC	2.041 ± 0.0034	1.97 ± 0.045
ACACCU	2.0447 ± 0.0018	2.05 ± 0.048
GCAAGU	2.009 ± 0.012	2.023 ± 0.02
GCAAGC	2.011 ± 0.0087	2.023 ± 0.014
AAGUUU	2.009 ± 0.017	2.01 ± 0.033
AAGUUC	2.031 ± 0.017	2.02 ± 0.054
CCACCC	2.038 ± 0.011	1.994 ± 0.014
